Test results published in patent US7598343B1, “Pharmaceutical formulations of bivalirudin and processes of making the same” (The Medicines Company, priority 2008, dated 2009).

Key:
Assay type in all cases: physicochemical
[1] = Asp^9-bivalirudin level by HPLC after adding pH-adjusting solution in four equal portions with inefficient mixing (Example 1, first part)
Experimental: In a first part of the study, the bivalirudin solution (˜600 mL) comprised bivalirudin at a concentration of ˜0.1 mg/mL in a 2.64% w/w mannitol solution. The pH-adjusting solution (233 mL) comprised 0.5 N sodium hydroxide in a 2.64% w/w mannitol solution. Asp^9-bivalirudin levels were measured throughout the experiment by high-performance liquid chromatography (HPLC). pH was also measured through the experiment. One measurement of Asp^9-bivalirudin was taken immediately after the bivalirudin solution was formed (baseline).
The pH-adjusting solution was added to the bivalirudin solution in four equal portions over the total duration of about 1 hour at a temperature of 5-8° C., each addition separated by about 15 minutes. The resulting compounding solution was mixed at between 600 rpm and 700 rpm throughout the addition of the first and second portions of the pH-adjusting solution, and the pH and Asp^9-bivalirudin levels were recorded (measurements #1 and #2). During the addition of the third portion, the mixer was turned off and the pH and Asp^9-bivalirudin levels were recorded (measurement #3A). The mixture was then subjected to high shear mixing at 4000 rpm for 30 seconds and the pH and Asp^9-bivalirudin levels were recorded (measurement #3B). During addition of the fourth portion, the mixer was turned off and the levels of pH and Asp^9-bivaluridin were recorded (measurement #4A). Mixing was then continued for, at least, two minutes at 5300 rpm and the pH was and Asp^9-bilvairudun levels were recorded (measurement #4B). The mixing rate was decreased to about 3600 rpm for 1 hour and the pH and Asp^9-bivalirudin levels were recorded (measurement #5). A portion of the material from measurement #4a was allowed to stand for 7 hours and the pH and Asp^9-bivalirudin levels were recorded (measurement #6).

[2] = Asp^9-bivalirudin level by HPLC in portions of compounding solution adjusted to pH 8, 9, 10, 12 over time (Example 1, second part)
Experimental: In a second part of the study, four portions of the final compounding solution from the first part of the study were removed. The pH levels of these portions were adjusted to 8, 9, 10, and 12, respectively, using additional pH-adjusting solution and high shear mixing on a Silverson Laboratory Emulsifier (Model L4RT).
Samples of the portion of the compounding solution adjusted to pH 8 were taken immediately, and after about 80 minutes, 300 minutes, and 370 minutes. Samples of the portion of the compounding solution adjusted to pH 9 were taken immediately, after about 80 minutes, and 300 minutes. Further, samples of the portion of the compounding solution adjusted to pH 10 and 12 were taken immediately, after about 80 minutes and 170 minutes.

[3] = Asp^9-bivalirudin level by HPLC in compounding solution under high shear mixing (Example 1, third part)
Source text: In a third part of the study, the final compounding solution from the first part of the study was placed into a recirculation vessel for use in a recirculation water bath (Precision Model 181) to be subjected to high shear mixing using a Silverson Laboratory Emulsifier (Model L4RT). Prior to this study, it was thought that bivalirudin solutions were unstable to both heat and shear, thus requiring extreme care in handling bivalirudin during the compounding process. Before subjecting the compounding solution to high shear mixing, the level of Asp^9-bivalirudin was recorded (measurement #1). The compounding solution was then subjected to high shear mixing at ˜6000 rpm for 30 minutes without use of the recirculation water bath; the temperature of the compounding solution due to the high shear mixing rose to about 36° C. A sample was then measured for Asp^9-bivalirudin level (measurement #2). The mixing speed was then slowed to 5000 rpm for 120 minutes and the temperature was measured at about 33° C., and another sample was analyzed for Asp^9-bivalirudin level (measurement #3).

[4] = Asp^9-bivalirudin level by HPLC after adding pH-adjusting solution in two portions of 75% and 25% at 400 rpm (Example 2)
Experimental: The bivalirudin solution (˜760 mL) comprised bivalirudin at a concentration of 0.050 mg/ml dissolved in a 2.64% w/w mannitol solution. The pH-adjusting solution (233 mL) comprised 0.5 N sodium hydroxide in a 2.64% w/w mannitol solution. The experiment was conducted at a temperature of about 8° C.
The pH-adjusting solution was divided into a 75% portion and a 25% portion of the total pH-adjusting solution volume. First, the pH and Asp^9-bivalirudin levels were measured before addition of the pH-adjusting solution (baseline). During addition of the 75% portion, at about 400 rpm, the pH was monitored during mixing until the pH achieved a constant level at which time the Asp^9-bivalirudin level was also measured (measurement #1). A portion of this material was allowed to sit for about 6.5 hours and the amount of Asp^9-bivalirudin was again measured (measurement #2). The 25% portion of the pH-adjusting solution was added about 30 minutes after the last base addition and mixing was continued at 400 rpm. The pH was initially recorded and then both the pH and Asp^9-bivalirudin levels were measured after about 30 minutes of mixing (measurement #3). The pH and Asp^9-bivalirudin levels were again recorded after mixing at 400 rpm overnight (measurement #4).

[5] = Asp^9-bivalirudin level by HPLC after constant-rate addition of pH-adjusting solution under high shear mixing (Example 3)
Experimental: The bivalirudin solution (675 mL) comprised 64.4 g dissolved in 2.64% w/w mannitol solution. The bivalirudin solution was divided in half for evaluation of adding the pH-adjusting solution at two different mixing rates. The bivalirudin solution was placed in a vessel with a high shear mixer.
The pH-adjusting solution (131.2 mL) comprised 0.5 N sodium hydroxide in a 2.64% w/w mannitol solution. The pH-adjusting solution was loaded into a burette, which was connected on the bottom to a tube with a hose. The tube was positioned at the base of the high shear mixer blade inside the mixing vessel containing the bivalirudin solution. A clamp was used to restrict the pH-adjusting solution from passing through the hose.
The speed of the high shear mixer (Silverson Laboratory Emulsifier Model L4RT) was set to either 1500 rpm or 3000 rpm. The clamp on the hose was removed and the pH-adjusting solution was then added to the bivalirudin solution at a controlled, constant rate of approximately 2 L/min.
The volume of the compounding solution was then adjusted to a final volume of 562.5 mL.
For the compounding solution mixed at 1500 rpm, after the pH-adjusting solution was added, the mixing speed was increased to approximately 4500 rpm for a short period of time to allow faster and complete dissolution, and then reduced to 1500 rpm until the solution was completely dissolved. After complete dissolution, the resulting compounding solution was moved from the vessel to a beaker which contained a stir bar. The solution was adjusted to a target pH of 5.3 using 19 mL of the pH-adjusting solution, and then the volume was adjusted to a final volume of 562.5 mL.
For both mixing conditions, the pH was monitored throughout the addition of the pH-adjusting solution to the bivalirudin solution to form the compounding solution. The level of Asp^9-bivalirudin was measured by HPLC before (baseline) addition of the pH-adjusting solution, after the addition of the pH-adjusting solution (measurement #2), and after the volume of the compounding solution was adjusted to mark (measurement #3).

[6] = Isoelectric point of bivalirudin

In the case of “D-Phenylalanyl-L-Prolyl-L-Arginyl-L-Prolyl-Glycyl-Glycyl-Glycyl-Glycyl-L-Asparagyl-Glycyl-L-Aspartyl-L-Phenylalanyl-L-Glutamyl-L-Glutamyl-L-Isoleucyl-L-Prolyl-L-Glutamyl-L-Glutamyl-L-Tyrosyl-L-Leucine trifluoroacetate (salt) hydrate [bivalirudin]”, the “% Asp^9-bivalirudin” value ([1]; #2: after addition of second portion of pH-adjusting solution, pH 4.2) is reported as 0.43%, the “% Asp^9-bivalirudin” value ([1]; #3A: after addition of third portion with no mixing, pH ~6 to 8) is reported as 0.45% and the “% Asp^9-bivalirudin” value ([1]; #3B: same as #3A but after mixing (4000 rpm, 30 seconds), pH 5.0) is reported as 0.74%. For the same substance, the “% Asp^9-bivalirudin” value ([1]; #4A: after fourth portion, sat for 10 minutes with no mixing, pH ~8.5 to 9) was 0.60%, the “% Asp^9-bivalirudin” value ([1]; #4B: same as #4A but after mixing, pH 6.0 to 6.5) was 0.57% and the “% Asp^9-bivalirudin” value ([1]; #5: same as #4A but after high speed mixing for 1 hour, pH 5.0) was 0.71%. The “% Asp^9-bivalirudin” value ([1]; #6: same as #4A but 7 hours later with no mixing, pH ~8.5 to 9) was 2.05%, the “% Asp^9-bivalirudin” value ([1]; Baseline: after bivalirudin solution was formed, pH ~2.5) was ~0.42% and the “% Asp^9-bivalirudin” value ([2]; Baseline, pH 5) was 0.71%. The “% Asp^9-bivalirudin” value ([2]; pH 8, after pH was adjusted) was 0.71%, the “% Asp^9-bivalirudin” value ([2]; pH 8, after ~80 minutes) was 0.77% and the “% Asp^9-bivalirudin” value ([2]; pH 8, after ~300 minutes) was 1.11%. The “% Asp^9-bivalirudin” value ([2]; pH 8, after ~370 minutes) was 1.26%, the “% Asp^9-bivalirudin” value ([2]; pH 9, after pH was adjusted) was 0.84% and the “% Asp^9-bivalirudin” value ([2]; pH 9, after ~80 minutes) was 1.07%. For the same substance, the “% Asp^9-bivalirudin” value ([2]; pH 9, after ~300 minutes) was 1.84%, the “% Asp^9-bivalirudin” value ([2]; pH 10, after pH was adjusted) was 1.24% and the “% Asp^9-bivalirudin” value ([2]; pH 10, after ~80 minutes) was 2.08%. The “% Asp^9-bivalirudin” value ([2]; pH 10, after ~170 minutes) was 2.59%, the “% Asp^9-bivalirudin” value ([2]; pH 12, after pH was adjusted) was 4.71% and the “% Asp^9-bivalirudin” value ([2]; pH 12, after ~80 minutes) was 8.20%. The “% Asp^9-bivalirudin” value ([2]; pH 12, after ~170 minutes) was 10.95%, the “% Asp^9-bivalirudin” value ([3]; #1: before high shear mixing, RT ~20° C.) was 0.71% and the “% Asp^9-bivalirudin” value ([3]; #2: after high shear mixing at 6000 rpm for 30 minutes, 36° C.) was 0.71%. For the same substance, the “% Asp^9-bivalirudin” value ([3]; #3: after mixing rate was reduced to 5000 rpm for 120 minutes, 33° C.) was 0.75%, the “stability to high shear mixing conditions” value ([3]; high shear mixing 6000/5000 rpm) was “stable” and the “% Asp^9-bivalirudin” value ([4]; #1: after addition of 75% portion, pH peak at 12.2 then dropped to 8-9) was 0.44%. The “% Asp^9-bivalirudin” value ([4]; #2: same as #1 but after sitting for 6.5 hours with no stirring) was 0.88%, the “% Asp^9-bivalirudin” value ([4]; #3: remaining 25% added, pH 12.4 initially then 7.7 after 30 minutes, taken from the bottom) was 2.19% and the “% Asp^9-bivalirudin” value ([4]; #3: remaining 25% added, pH 12.4 initially then 7.7 after 30 minutes, taken from the top) was 1.85%. For the same substance, the “% Asp^9-bivalirudin” value ([4]; #4: same as #3 but after mixing overnight, pH 5.0) was 1.57%, the “% Asp^9-bivalirudin” value ([4]; Baseline: after bivalirudin solution was formed, pH 1.71) was 0.42% and the “% Asp^9-bivalirudin” value ([5]; 1500 rpm, #1 after addition of pH-adjusting solution, pH ~6.0) was 0.31%. For the same substance, the “% Asp^9-bivalirudin” value ([5]; 1500 rpm, #2 after compounding solution was adjusted to mark, pH 5.3) was 0.34%, the “% Asp^9-bivalirudin” value ([5]; 1500 rpm, Baseline before addition of pH-adjusting solution, pH ~2.5) was 0.38% and the “% Asp^9-bivalirudin” value ([5]; 3000 rpm, #1 after addition of pH-adjusting solution, pH ~5.6) was 0.41%. The “% Asp^9-bivalirudin” value ([5]; 3000 rpm, #2 after compounding solution was adjusted to mark, pH 5.25) was 0.40%, the “% Asp^9-bivalirudin” value ([5]; 3000 rpm, Baseline before addition of pH-adjusting solution, pH ~2.5) was 0.43% and the “degradation by high shear mixing” value ([5]; high shear mixing even up to 4500 rpm) was “not susceptible to degradation”. The isoelectric point [6] was “about 3.6”.
